Experimental data reported in PMC2820103 (Biochemistry, 2009).

Target: the molecule itself
Assay: SEC

B1: Benzylsuccinate synthase α subunit (BSS-α) with a C-terminal His6 tag (natural protein, Thauera aromatica T1, UniProt O68395 1-864, looked up)
chain: MNDIVSAKVLEYKGKKLNFTPEDPAEETIPADELHEHLQKPSTARTKRLKERCRWKHASAGEFIEKSVTAGIERMRYLTEAHKASEGKPEAIRRALGLANVLNKSTLVLQEDEFIVGYHAEDPNMFPLYPELSHMAVQDYLRSDYSPQPADEAAAINEYWKPHSLQSKCQPYFDPADLGRMYQVSSMEAPSFASGYNSIVPPYETVLEDGLLARIKLAEKHIAEAQADMSTFPWNGTKGLDNIAKIDNWKAMVIACKAVISWARRQGRLCKIVAENFETDPKRQAELLEIADICQRIPAEPCKGLKDAMQAKFFTFLICHAIERYASGYAQKEDTLLWPYYKASVVDKKFQPMSHMDAVELVEMERLKISEHGAGKSRAYREIFPGSNDLFILTVGGTNAKGEDACNDMTDAILEAAKRIRTAEPSIVFRYSKKNREKTLRWVFECIRDGLGYPSIKHDEIGTEQMKEYAKFSLNGNGATDEEAHNWVNVLCMSPGIHGRRKTQKTRSEGGGSIFPAKLLEISLNDGYDWSYADMQLGPKTGDLSSLKSFEDVWEAFRKQYQYAINLCISTKDVSRYFEQRFLQMPFVSAIDDGCMELGMDACALSEQPNGWHNPITTIVAANSLVAIKKLVFEEKKYTLEQLSQALKANWEGFEEMRVDFKRAPKWGNDDDYADGIITRFYEEIIGGEMRKITNYSGGPVMPTGQAVGLYMEVGSRTGPTPDGRFGGEAADDGGISPYMGTDKKGPTAVLRSVSKVQKNQKGNLLNQRLSVPIMRSKHGFEIWNSYMKTWHDLNIDHVQFNVVSTDEMRAAQREPEKHHDLIVRVSGYSARFVDIPTYGQNTIIARQEQDFSASDLEFLNVEI
With B1 the “stoichiometry N” value was 2.
